In experiment [1] the target is TFPI expressed on HUVECs (human) (UniProt P10646). The experiment can be described thus: cell-based or functional assay.
In the next experiment the target is T1, human TFPI protein (human, UniProt P10646 29-282, limits assumed).
T1 construct: Soluble human TFPI, coated on ELISA plates (6.1) and used in solution in the FXa and TF/FVIIa/FX assays (6.2, 6.3)
T1 sequence (looked up): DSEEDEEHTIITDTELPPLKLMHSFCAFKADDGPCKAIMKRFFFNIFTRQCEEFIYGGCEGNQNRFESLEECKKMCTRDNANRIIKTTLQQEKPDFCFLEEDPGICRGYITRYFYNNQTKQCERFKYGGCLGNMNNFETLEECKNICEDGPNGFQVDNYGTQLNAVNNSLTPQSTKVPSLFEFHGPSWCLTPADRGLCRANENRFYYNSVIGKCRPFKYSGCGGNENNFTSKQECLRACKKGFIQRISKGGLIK
The experiment can be described thus: ELISA, human TFPI coated at 0.1 ug/mL, HRP goat anti-human IgG detection. On the procedure:
Human TFPI was coated onto the ELISA plate at a concentration of 0.1 μg/mL, with 100 μL per well, and incubated overnight at 4° C. The coating solution was then discarded, and the wells were blocked with 200 μL of PBS solution containing 1% BSA (PBSB) per well at 37° C. for 1 hour. The plate was washed with PBS solution containing 0.05% Tween-20 (PBST). A series of diluted concentrations of AB8D were added, with 100 μL per well, and incubated for 1 hour at 37° C. The plates were washed with PBST, and then HRP-labeled goat anti-human IgG (H+L) (Jackson Laboratory) was added as the detection antibody, with incubation for 1 hour at 37° C. After washing three times with 0.05% PBST, TMB was added, with 100 μL per well, and the color was developed at room temperature for 5 minutes. The reaction was terminated by adding 0.2 M H₂SO₄, with 50 μL per well. The absorbance values were read at dual wavelengths of 450/620 nm using a microplate reader. Using OD450 nm-OD620 nm as the Y-axis and antibody concentration as the X-axis, the data were analyzed using GraphPad Prism 6 software with a four-parameter logistic curve fitting to calculate the EC₅₀ value.

The target of experiment [2] is TFPI expressed on HUVECs (human) (UniProt P10646). The experiment can be described thus: flow cytometry on HUVEC cells, AF647 goat anti-human IgG detection. A general note: A flow cytometer gives signals particle by particle.
Experiment [3] has as its target T2, human TFPI with a His tag (human, UniProt P10646 29-282, limits assumed).
T2 construct: Coupled to Ni-NTA sensors at 10 ug/mL for BLI; not shown: His tag
T2 sequence (looked up): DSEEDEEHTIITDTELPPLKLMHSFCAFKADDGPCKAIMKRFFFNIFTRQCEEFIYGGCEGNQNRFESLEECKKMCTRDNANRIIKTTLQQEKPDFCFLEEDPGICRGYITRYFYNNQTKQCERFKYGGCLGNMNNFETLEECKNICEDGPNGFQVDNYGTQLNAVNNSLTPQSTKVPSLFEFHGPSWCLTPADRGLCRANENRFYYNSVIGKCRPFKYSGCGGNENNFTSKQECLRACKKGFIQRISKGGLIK
The experiment can be described thus: BLI (ForteBio Octet), His-tagged human TFPI on Ni-NTA sensors, antibody 3.125-100 nM. As to the method: The binding affinity constant of the purified mouse monoclonal antibody against human TFPI (mAb3-71) to human TFPI was determined using biolayer interferometry (BLI) with the ForteBio Octet RED&QK system from PALL Corporation. The concentration gradient for multi-channel parallel quantitative analysis was set to 3.125, 6.25, 12.5, 25, 50, and 100 nM, and human TFPI with a His tag at 10 μg/mL was coupled to Ni-NTA sensors.
(In BLI a coated tip is dipped into the sample, and binding shifts an interference pattern.)

One may read the EC50 as the concentration at which the effect is half-maximal. Read a low EC50 as higher potency in that assay. For orientation: Kd means the equilibrium constant for the complex coming apart. Broadly, the koff is the first-order rate constant of dissociation. Read a high koff as fast dissociation. By kon is commonly meant the second-order rate constant of association.

B1: humanized anti-human TFPI antibody AB8D (antibody, V domains shown)
VH: EVQLVQSGAELKKPGASVKLSCKASGYTFTSYWMHWVRQTPGQGLEWIGEIKPDQGRINYNEKFKTRATLTADKSTSTAYMELSSLRSEDTAVYYCARSSVVDVAMDYWGQGTTVTVSS
VL: EIVLTQSPATLSLSPGERATLSCSASSSVSSSYLYWYQQKPGQAPRLWISGTSILASGVPARFSGSGSGTKYTLTISSLEPEDFAVYFCHQWSHYPFTFGQGTKLEIK
notes: Full-length humanized IgG of about 145 kD, expressed in CHO cells
As to B1, the neutralization of TFPI on HUVEC cells (FVIIa/FX added, S-2765, OD405 nm) in experiment [1] is 117 ng/mL. Moreover, the EC50 with human TFPI protein worked out at 0.00165 µg/mL; in experiment [2] it was 0.0286 µg/mL.

B2: mouse monoclonal antibody against human TFPI, mAb3-71 (antibody, V domains shown)
VH: QVQLQQPEAELMKPGASVKLSCKASGYTFTSYWMHWVKQRPGQGLEWIGEIKPDNGRINYNEKFKTKATLAVDKSSSTAYMQLNSLTSGDSAVYYCARSSVVDVAMDYWGQGTSVSVSS
VL: QIVLTQSPAIMSASPGEKVTLTCSASSSVSSSYLYWYQQKPGSSPKLWISGTSILASGVPARFSGSGSGTSYSLTISSMEAEDTASYFCHQWSHYPFTFGSGTKLEIK
notes: also called hybridoma cell line #3-71
In experiment [3], B2 had a Kd of 4.54 pM, a koff of 1.31e-06 s⁻¹ and an on-rate constant (kon) of 289000 M⁻¹ s⁻¹.

Values taken from US20250368752A1 (AMPSOURCE BIOPHARMA SHANGHAI, published 2025).
